According to patent US20120114659A1 (published 2012):

Target: T1, human NPRA on HEK cells loaded with BNP (human, UniProt P16860 103-134)
T1 sequence: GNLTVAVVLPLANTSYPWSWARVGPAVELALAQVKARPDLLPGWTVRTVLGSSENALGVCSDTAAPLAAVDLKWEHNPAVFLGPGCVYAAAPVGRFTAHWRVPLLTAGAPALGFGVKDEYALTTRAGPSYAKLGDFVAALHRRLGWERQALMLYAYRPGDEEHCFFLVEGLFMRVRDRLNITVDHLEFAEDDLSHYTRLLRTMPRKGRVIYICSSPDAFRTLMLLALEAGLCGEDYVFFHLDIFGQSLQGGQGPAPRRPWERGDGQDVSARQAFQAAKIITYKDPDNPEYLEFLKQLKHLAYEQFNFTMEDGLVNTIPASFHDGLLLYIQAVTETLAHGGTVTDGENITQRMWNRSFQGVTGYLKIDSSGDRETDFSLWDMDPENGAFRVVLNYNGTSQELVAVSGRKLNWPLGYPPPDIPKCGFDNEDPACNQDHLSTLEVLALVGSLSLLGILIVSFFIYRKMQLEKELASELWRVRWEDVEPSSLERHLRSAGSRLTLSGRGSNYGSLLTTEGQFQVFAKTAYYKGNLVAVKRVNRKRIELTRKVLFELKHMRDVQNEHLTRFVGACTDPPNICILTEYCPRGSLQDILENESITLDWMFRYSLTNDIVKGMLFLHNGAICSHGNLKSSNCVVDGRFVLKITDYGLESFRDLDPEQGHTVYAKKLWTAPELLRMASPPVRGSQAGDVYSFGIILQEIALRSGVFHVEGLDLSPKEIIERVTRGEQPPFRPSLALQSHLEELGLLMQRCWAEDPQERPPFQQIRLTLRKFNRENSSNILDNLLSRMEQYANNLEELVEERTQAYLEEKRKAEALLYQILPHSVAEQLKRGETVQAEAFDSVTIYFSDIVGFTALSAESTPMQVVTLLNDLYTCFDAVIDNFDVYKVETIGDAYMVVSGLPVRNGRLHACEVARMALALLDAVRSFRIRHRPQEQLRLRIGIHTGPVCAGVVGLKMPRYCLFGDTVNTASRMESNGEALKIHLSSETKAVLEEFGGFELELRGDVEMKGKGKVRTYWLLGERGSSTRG
T1 sequence (peptide): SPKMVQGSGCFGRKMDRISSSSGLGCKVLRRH
Experiment: cell-based or functional assay

B1: 5064 Fab (Fab, V domains shown)
VH: QVQLQQSGPGLVKPSQTLSLTCAISGDSVSSRSASWSWIRQSPGRGLEWLGRIYYRSKWYNDYAVSVKSRITINPDTSKNQFSLQLNSVTPEDTAVYYCARMDVPSFRYFDVWGQGTLVTVSS
VL: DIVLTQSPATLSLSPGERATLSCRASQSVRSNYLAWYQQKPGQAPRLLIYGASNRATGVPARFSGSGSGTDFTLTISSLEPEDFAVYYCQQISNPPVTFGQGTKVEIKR
fold decrease of the EC50 of BNP (cGMP, HEK NPRA cells, 400 nM Fab): 2 fold
